This experiment addresses T1, αvβ3 integrin on the surface of M21 human melanoma cells (human, UniProt P06756 31-1048; P05106 27-788).
T1 construct: whole, on cells; also called αvβ3 integrin heterodimer
Briefly: immunofluorescence on M21 cells, detected with anti-mouse IL-12 p40 antibody and FITC secondary. From the text:
The specificity of mrIL-12vp binding to αᵥβ₃ integrin-positive cell lines was subsequently determined. M21, a human melanoma line which expresses αᵥβ₃ integrin on its surface (Felding-Habermann, et al. (1992) J. Clin. Invest. 89:2018-2022), was used as a αᵥβ₃ integrin-positive cell line for this analysis. Prior to the studies with mrIL-12vp, the expression of αᵥβ₃ integrin was confirmed based on intense labeling of M21 cells with the anti-αᵥβ₃ integrin antibody LM609 using flow cytometry. […] Immunofluorescence evaluation of cells grown on chamber slides confirmed specific binding of mrIL-12vp, but not mrIL-12 to M21 cells. There was no binding of mrIL-12 or mrIL-12vp to Saos-2 cells.
Immunofluorescence labeling was performed in accordance with standard methods (Teng, et al. (2002) Am. J. Physiol. Renal Physiol. 282:F1075-F1083). M21 or Saos-2 cells were incubated with 5 μg of either mrIL-12 or mrIL-12vp for 30 minutes at 37 C in a 5% CO₂ atmosphere. The cells were rinsed with PBS, and then fixed with freshly prepared 4% paraformaldehyde for 10 minutes at room temperature. Detection of mrIL-12 or mrIL-12vp binding to cells used an anti-mouse IL-12 p40 antibody, followed by three washes with PBS and incubation with FITC-conjugated goat anti-mouse IgG (1:200) for 1 hour in the dark. As a control, anti-mouse IL-12 p40 was omitted from the labeling process.

We go through one molecule from US20050063948A1 (published 2005).

T1 sequence (P06756 31-1048, chain 1 of 2): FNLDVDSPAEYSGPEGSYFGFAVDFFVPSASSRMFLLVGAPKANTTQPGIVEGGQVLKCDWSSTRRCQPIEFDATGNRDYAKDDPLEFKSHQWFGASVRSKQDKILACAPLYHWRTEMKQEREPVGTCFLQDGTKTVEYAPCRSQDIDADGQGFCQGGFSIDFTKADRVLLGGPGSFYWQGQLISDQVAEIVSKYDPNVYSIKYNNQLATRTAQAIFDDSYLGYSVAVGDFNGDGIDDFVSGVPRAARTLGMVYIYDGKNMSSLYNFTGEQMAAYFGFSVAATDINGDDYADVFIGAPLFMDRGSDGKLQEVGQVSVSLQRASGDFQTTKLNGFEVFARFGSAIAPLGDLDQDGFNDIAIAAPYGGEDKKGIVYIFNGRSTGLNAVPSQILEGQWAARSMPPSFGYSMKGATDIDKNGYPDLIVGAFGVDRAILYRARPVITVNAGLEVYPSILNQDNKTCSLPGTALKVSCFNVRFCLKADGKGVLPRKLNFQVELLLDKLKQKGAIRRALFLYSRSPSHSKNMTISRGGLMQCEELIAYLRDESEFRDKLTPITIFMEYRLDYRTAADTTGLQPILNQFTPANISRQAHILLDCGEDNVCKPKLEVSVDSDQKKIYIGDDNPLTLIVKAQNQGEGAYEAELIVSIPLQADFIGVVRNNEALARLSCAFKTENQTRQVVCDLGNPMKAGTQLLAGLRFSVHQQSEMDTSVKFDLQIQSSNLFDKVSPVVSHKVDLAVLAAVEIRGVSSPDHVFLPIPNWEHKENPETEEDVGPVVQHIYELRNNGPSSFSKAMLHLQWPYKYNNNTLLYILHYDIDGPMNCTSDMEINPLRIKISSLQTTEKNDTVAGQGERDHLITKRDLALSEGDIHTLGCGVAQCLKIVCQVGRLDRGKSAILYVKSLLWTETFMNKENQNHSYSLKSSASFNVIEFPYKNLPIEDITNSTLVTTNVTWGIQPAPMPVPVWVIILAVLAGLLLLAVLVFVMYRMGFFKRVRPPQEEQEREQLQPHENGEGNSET
T1 sequence (P05106 27-788, chain 2 of 2): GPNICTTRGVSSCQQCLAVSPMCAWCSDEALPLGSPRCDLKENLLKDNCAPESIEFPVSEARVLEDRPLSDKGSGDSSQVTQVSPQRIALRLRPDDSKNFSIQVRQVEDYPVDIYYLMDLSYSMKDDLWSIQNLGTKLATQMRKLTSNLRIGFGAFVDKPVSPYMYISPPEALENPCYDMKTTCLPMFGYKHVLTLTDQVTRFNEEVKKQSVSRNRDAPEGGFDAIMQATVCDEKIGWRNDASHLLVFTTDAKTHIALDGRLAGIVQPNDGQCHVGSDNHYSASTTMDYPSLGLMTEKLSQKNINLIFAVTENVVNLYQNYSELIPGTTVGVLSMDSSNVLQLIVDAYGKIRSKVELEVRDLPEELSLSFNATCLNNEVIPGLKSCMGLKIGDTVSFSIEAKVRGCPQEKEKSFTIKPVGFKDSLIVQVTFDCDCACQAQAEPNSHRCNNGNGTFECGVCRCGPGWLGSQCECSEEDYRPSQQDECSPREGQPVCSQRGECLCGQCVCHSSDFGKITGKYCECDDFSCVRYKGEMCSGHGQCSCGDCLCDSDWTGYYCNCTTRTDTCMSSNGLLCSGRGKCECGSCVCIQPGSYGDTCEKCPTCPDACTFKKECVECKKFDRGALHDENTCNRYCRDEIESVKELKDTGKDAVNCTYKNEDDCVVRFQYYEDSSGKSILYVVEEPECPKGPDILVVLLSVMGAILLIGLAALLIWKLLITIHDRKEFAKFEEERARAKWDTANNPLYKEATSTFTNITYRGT

B1: murine recombinant IL-12 (mrIL-12) (ligand, mouse)
chain 1: RVIPVSGPARCLSQSRNLLKTTDDMVKTAREKLKHYSCTAEDIDHEDITRDQTSTLKTCLPLELHKNESCLATRETSSTTRGSCLPPQKTSLMMTLCLGSIYEDLKMYQTEFQAINAALQNHNHQQIILDKGMLVAIDELMQSLNHNGETLRQKPPVGEADPYRVKMKLCILLHAFSTRVVTINRVMGYLSSA
chain 2: MWELEKDVYVVEVDWTPDAPGETVNLTCDTPEEDDITWTSDQRHGVIGSGKTLTITVKEFLDAGQYTCHKGGETLSHSHLLLHKKENGIWSTEILKNFKNKTFLKCEAPNYSGRFTCSWLVQRNMDLKFNIKSSSSSPDSRAVTCGMASLSAEKVTLDQRDYEKYSVSCQEDVTCPTAEETLPIELALEARQQNKYENYSTSFFIRDIIKPDPPKNLQMKPLKNSQVEVSWEYPDSWSTPHSYFSLKFFVRIQRKKEKMKETEEGCNQKGAFLVEKTSTEVQCKGGNVCVQAQDRYYNSSCSKWACVPCRVRS
notes: Bought
On to B1, for which the binding result is reported as “no binding (tested: 5 µg)”.
